Measured values from article PMC3325613.

Key:
[1] = target: HIV-1 capsid protein C-terminal domain, CTD (150–231) (HIV-1) (UniProt P12493); assay: ITC
[2] = target: HIV-1 capsid protein C-terminal domain, CTD (144–231) (HIV-1) (UniProt P12493); assay: ITC

| Substance | Kd [1] [µM] | Kd [2] [µM] |
| --- | --- | --- |
| HIV-1 capsid protein C-terminal domain, CTD (150–231) (from UniProt P12493 282-363) (domain or fragment) | 11 | – |
| HIV-1 capsid protein C-terminal domain, CTD (144–231) (from UniProt P12493 276-363) (domain or fragment) | – | 2.5 |
